# Results as given in paper PMC5044835, “Crystal Structure of the Human Astrovirus Capsid Protein” (Journal of Virology, 2016).
# B1: astrovirus VP70 expressed in insect cells (natural protein)
# chain: MASKSDKQVTVEVNNNGRSRSKSRARSQSRGRGRSVKITVNSHNKGRRQNGRNKYQSNQRVRKIVNKQLRKQGVTGPKPAICQTATATLGTIGSNTTGATEIEACILLNPVLVKDATGSTQFGPVQALGAQYSMWKLKYLNVRLTSMVGASAVNGTVVRISLNPTSTPSSTSWSGLGARKHLDVTVGKNAVFKLKPSDLGGPRDGWWLTNTNDNASDTLGPSIEIHTLGQTMSSYQNTQFTGGLFLVELSSAWCFTGYAANPNLVNLVKSTDKSVNVTFEGSAGTPLIMNVPEHSHFARTAVEHSSLSTSLSRAGGESSSDTVWQVLNTAVSAAELVTPPPFNWLVKGGWWFVKLIAGRARTGARRFYVYLSYQDALSNKPALCTGGVPASARQSNPVRTTLQFTQMNQPSLGHGATPMTFGRSIPEPGEQFRVLLTVGPPMAPNTANSQNWVNKTIVPPENQYTVKIGIDLEHYTTMQGFTPVESVSWYTADFQPSDEPSPIPGLYARVNNTKKADVYGVQQFKSSHTNNRHQITSVFLVRVTTSFQVINYTSYFIRGAESGSNVSNLKIRDQTYHTPLQFTQGKWYLLTSTVMHDGPTSSGWVWMNQELTNNIAYRVDPGMMYLITPPPAASQLYFELHTVLPQARSEEPETYVD
# notes: construct, tags and purification are not described; source: insect cells
# B2: astrovirus VP70 expressed in E. coli (natural protein)
# chain: B1 chain
# notes: construct, tags and purification are not described; source: E. coli
# Target: the molecule itself
# Assay: not stated; data not shown; oligomeric state of recombinant VP70 expressed in insect cells or E. coli
row,Protein,stoichiometry N
1,B1,2
2,B2,2
